Assay results published in patent publication US20250332213A1, “EXTENDED-RELEASE INJECTABLE GEL FORMULATIONS CONTAINING ANGIOTENSIN-(1-7) OLIGOPEPTIDES OR VARIANTS THEREOF” (ProNeurogen, Inc., priority 2021, published 2025).
One block for each compound: values may come before it. Where no end group is shown, it is not given here. [ ]: non-standard residue; d: D form. glycan = not defined here

How the values were obtained:
[1] = Solubility assessment in various solvents; assay type: physicochemical; conditions: for Solubility (in words): in DMSO and PBS, did not require sonication
Protocol: A small sample containing the (co-)polymer of interest (e.g., PLA or PLGA) and the ANG-(1-7) oligopeptide (total sample size: ˜1 mg) was placed into a microfuge tube. The solvent of interest (e.g., DMSO, NMP, BB, and/or BzOH) was added in μL aliquots until the drug compound was in solution. The samples were left overnight to fully dissolve and were sonicated the following day, as was necessary to fully solubilize the sample. Solubility was determined when/if a clear solution was obtained.
Solubility assessment was performed for the ANG-(1-7) oligopeptide of the disclosure across multiple different solvents shown in Table 6, below. […] All other solvents required sonication to fully dissolve the ANG-(1-7) oligopeptide. DMSO is a suitable starting solvent for gel formulation evaluation.
Solubility of PNA5 in various solvents was tested and for potential use with this peptide. […] All other solvents required sonication to fully dissolve PNA5. DMSO is a suitable starting solvent for gel formulation evaluation using the PNA5 peptide. Benzyl benzoate and benzyl alcohol may also be useful solvents or solvent additives.

[2] = FDA-approved food additive; cited from earlier work

Solubility (in words) [1]: very high solubility
Concentration ([1]; solvent Benzyl Alcohol): 250000 µg/mL
Concentration ([1]; solvent Benzyl Benzoate): 250000 µg/mL
Concentration ([1]; solvent DMSO): 500000 µg/mL
Concentration ([1]; solvent Ethoxylated Castor Oil): 250000 µg/mL
Concentration ([1]; solvent Ethyl Laureate): 250000 µg/mL
Concentration ([1]; solvent Ethyl Oleate): 250000 µg/mL
Concentration ([1]; solvent NMP): 250000 µg/mL
Concentration ([1]; solvent Oleic Acid): 250000 µg/mL
Concentration ([1]; solvent PBS at pH 7.4): 500000 µg/mL
Concentration ([1]; solvent Polyethylene Glycol 300): 250000 µg/mL
Concentration ([1]; solvent Triacetin): 250000 µg/mL
Concentration ([1]; solvent Triethyl Citrate): 250000 µg/mL
Compound: CC[C@H](C)[C@H](NC(=O)[C@H](Cc1ccc(O)cc1)NC(=O)[C@@H](NC(=O)[C@H](CCCNC(=N)N)NC(=O)[C@@H](N)CC(=O)O)C(C)C)C(=O)N[C@@H](Cc1c[nH]cn1)C(=O)N1CCC[C@H]1C(=O)O [ANG-(1-7), Asp-Arg-Val-Tyr-Ile-His-Pro]

Compound: CC(=O)OC[C@H]1O[C@H](OC2(COC(C)=O)O[C@H](COC(=O)C(C)C)[C@@H](OC(=O)C(C)C)[C@@H]2OC(=O)C(C)C)[C@H](OC(=O)C(C)C)[C@@H](OC(=O)C(C)C)[C@@H]1OC(=O)C(C)C (some centres unmarked) [SAIB, sucrose acetoisobutyrate]
safe human daily intake [2]: up to 20 mg/kg

Compound: PNA5: ANG-(1-7) variant, SEQ ID NO: 10: Asp Arg Val Tyr Ile His Ser* (glycosylated serine), carboxyl terminal NH2 ([dD][dR][dV][dY][dI][dH][dS](glycan)-NH2; reading uncertain; also: printed as Asp Arg Val Tyr Ile His Ser*)
Concentration ([1]; Table 9, solvent Benzyl Alcohol (BA)): 100000 µg/mL
Concentration ([1]; Table 9, solvent Benzyl Benzoate (BB)): 100000 µg/mL
Concentration ([1]; Table 9, solvent DMA): 100000 µg/mL
Concentration ([1]; Table 9, solvent DMSO): 500000 µg/mL
Concentration ([1]; Table 9, solvent Ethoxylated Castor Oil): 100000 µg/mL
Concentration ([1]; Table 9, solvent Ethyl Laurate): 100000 µg/mL
Concentration ([1]; Table 9, solvent Ethyl Oleate): 100000 µg/mL
Concentration ([1]; Table 9, solvent NMP): 100000 µg/mL
Concentration ([1]; Table 9, solvent Oleic Acid): 100000 µg/mL
Concentration ([1]; Table 9, solvent PBS): 100000 µg/mL
Concentration ([1]; Table 9, solvent Polyethylene Glycol 300): 100000 µg/mL
Concentration ([1]; Table 9, solvent Triacetin): 100000 µg/mL
Concentration ([1]; Table 9, solvent Triethyl Citrate): 100000 µg/mL
Solubility (in words) [1]: high solubility
Observation at 0-24 hours ([1]; solvent Benzyl Alcohol (BA), 100 mg/mL): Clear colorless, fluid
Observation at 0-24 hours ([1]; solvent Benzyl Benzoate (BB), 100 mg/mL): Clear colorless, fluid
Observation at 0-24 hours ([1]; solvent DMA, 100 mg/mL): Insoluble
Observation at 0-24 hours ([1]; solvent DMSO, 500 mg/mL): Clear colorless, fluid
Observation at 0-24 hours ([1]; solvent Ethoxylated Castor Oil, 100 mg/mL): Insoluble
Observation at 0-24 hours ([1]; solvent Ethyl Laurate, 100 mg/mL): Insoluble
Observation at 0-24 hours ([1]; solvent Ethyl Oleate, 100 mg/mL): Insoluble
Observation at 0-24 hours ([1]; solvent NMP, 100 mg/mL): Insoluble
Observation at 0-24 hours ([1]; solvent Oleic Acid, 100 mg/mL): Insoluble
Observation at 0-24 hours ([1]; solvent PBS, 100 mg/mL): Clear colorless, fluid
Observation at 0-24 hours ([1]; solvent Polyethylene Glycol 300, 100 mg/mL): Insoluble
Observation at 0-24 hours ([1]; solvent Triacetin, 100 mg/mL): Insoluble
Observation at 0-24 hours ([1]; solvent Triethyl Citrate, 100 mg/mL): Insoluble
